According to article PMC1762433:

Target: FBXW8 (UniProt Q8N3Y1)
Test: HA IP, V5 immunoblot
Conditions: reference: HA-cyclin D1 wild type; sites T286

binding against the reference: weaker
Substance: cyclin D1 (from UniProt P24385) HA-cyclin D1 T286A
